Results as given in the supplement of paper PMC10567573.

B1: ZNF8 (parent)
chain: RIHTGERPYMCKECGKAFSQNSSL

Variants of: B1
Assay: protein stability index of a GFP-peptide fusion (GPS, HEK-293T) (PSI 1-6); higher = more stable
Settings: c terminus: a fixed tail appended
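Also: lentivirally expressed fusions sorted by FACS into six bins by GFP to DsRed ratio, PSI derived from sequencing read proportions per bin multiplied by bin number.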

Variant	protein stability index
S22N	2.37
S22R	2.19
S22C	3.07
S22Y	1.8
S22P	2.6
E6G	1.5
E6R	1.71
E6Y	1.88
E6W	2.27
E6I	1.68
E6S	1.33
E6H	2.36
E6T	2.36
E6L	2
E6K	2.35
E6P	2.34
E6A	1.91
E6D	2.28
E6N	2.24
E6F	2.44
E6M	2.7
E6C	1.68
E6V	1.98
E6Q	2.2

Variant	protein stability index
N21W	1.7
N21L	1.86
N21V	1.4
N21T	2.66
N21R	2.26
N21Y	1.5
N21M	2.17
N21D	3.08
N21H	2.4
N21P	2.44
N21G	2.71
N21Q	2.48
N21A	1.94
N21C	2.46
N21I	2.04
N21F	1.8
N21K	2.75
N21E	2.65
N21S	2.59
S23C	2.75
S23H	2.9
S23K	3.26
S23I	2.02
S23G	2.3

Variant	protein stability index
S23A	2.26
S23F	1.77
S23M	1.98
S23E	2.88
S23L	1.77
S23D	2.8
M10S	2.26
M10E	3.1
M10I	2.69
M10F	2.31
M10L	2.74
M10K	1.75
M10P	2.62
M10Y	2.24
M10N	2.12
M10H	2.52
M10D	2.84
M10A	2.64
M10V	2.24
M10Q	3.16
M10G	2.7
M10R	1.95
M10T	3.03
M10C	3.11

Variant	protein stability index
M10W	2.3
S19M	2.24
S19Y	2.18
S19C	3.28
S19P	1.81
S19L	3.17
S19F	2.02
S19D	3.09
S19Q	2.77
S19R	1.91
S19V	2
S19A	2.66
S19K	2.27
S19I	2.01
S19N	2.31
S19G	2.6
S19W	1.47
S19E	3.26
S19H	2.8
S19T	2.35
A17N	2.99
A17W	2.65
A17K	3
A17L	2.47

Variant	protein stability index
A17Y	2.37
A17E	2.95
A17S	2.94
A17P	2.09
A17C	2.46
A17G	2.42
A17I	2.41
A17D	2.84
A17V	3.24
A17T	3.29
A17Q	3.01
A17H	2.42
A17M	2.67
A17R	3.04
A17F	2.42
Y9P	2.48
Y9N	2.7
Y9V	2.71
Y9M	2.6
Y9K	1.83
Y9Q	2.75
Y9G	3.21
Y9F	3.21
Y9L	2.43

Variant	protein stability index
Y9I	2.21
Y9S	2.2
Y9A	3.88
Y9C	4.27
Y9H	2.86
Y9W	2.19
Y9E	3.27
Y9T	2.42
Y9R	2.02
Y9D	3.29
F18I	2.53
F18Y	2.39
F18W	1.99
F18C	3.03
F18V	2.83
F18E	3.64
F18N	3.83
F18L	2.44
F18D	3.84
F18H	3.59
F18S	3.57
F18P	3.45
F18M	2.76
F18T	2.85

Variant	protein stability index
F18Q	2.79
F18K	3.29
F18R	3.25
F18A	2.93
F18G	3.35
G15Y	1.62
G15F	2.09
G15H	2.32
G15V	2.33
G15M	2.67
G15N	2.33
G15D	3.25
G15C	2.16
G15I	1.98
G15P	2.54
G15Q	3.26
G15A	3.37
G15E	3.46
G15L	3.05
G15K	2.99
G15S	3.2
G15R	2.76
G15T	3.05
